The data set deals with TDG N140A (human, UniProt Q13569 1-410, N140A). Description: fluorescence anisotropy.
Sequence of TDG N140A (Q13569 whole entry N140A): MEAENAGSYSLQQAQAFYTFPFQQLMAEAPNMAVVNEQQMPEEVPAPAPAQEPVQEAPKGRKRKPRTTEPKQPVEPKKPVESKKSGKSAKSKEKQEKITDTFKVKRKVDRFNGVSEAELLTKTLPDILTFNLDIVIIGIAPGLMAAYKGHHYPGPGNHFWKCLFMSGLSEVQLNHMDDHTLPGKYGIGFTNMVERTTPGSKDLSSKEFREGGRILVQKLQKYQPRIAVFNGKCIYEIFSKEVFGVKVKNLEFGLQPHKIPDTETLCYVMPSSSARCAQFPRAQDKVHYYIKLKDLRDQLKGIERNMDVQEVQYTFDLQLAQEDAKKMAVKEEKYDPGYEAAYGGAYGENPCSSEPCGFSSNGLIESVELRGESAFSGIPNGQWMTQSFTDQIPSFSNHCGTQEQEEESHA

B1: G·fC 28mer (TR) (dsDNA)
DNA 1: GTGTCACCACTGCTCACGTACAGAGCTG
DNA 2: CAGCTCTGTACGTGAGCAGTGGTGACAC
modifications: 5-formylcytosine at position 17 of strand 1, paired with G
For orientation: Kd means the constant that tells how readily two partners part at equilibrium. Low values mean tighter binding, high ones weaker binding. For B1, binding was put at a Kd of 4 ± 0.8 nM.

B2: G·caC 28mer (TR) (dsDNA)
DNA 1: GTGTCACCACTGCTCACGTACAGAGCTG
DNA 2: CAGCTCTGTACGTGAGCAGTGGTGACAC
modifications: 5-carboxylcytosine at position 17 of strand 1, paired with G
Turning to B2, binding was put at a Kd of 2.3 ± 0.6 nM.
